{
  "source": "paper PMC6572100",
  "about": "“Structure of the Prx6-subfamily 1-Cys peroxiredoxin from Sulfolobus islandicus” (Acta Crystallographica. Section F, Structural Biology …, 2019)",
  "proteins": {"B1": {"name": "Sulfolobus islandicus 1-Cys peroxiredoxin (1-Cys SiPrx) (enzyme, Sulfolobus islandicus REY15a)", "chain": "MVSEGRIPLIGEKFPEMEVITTHGKIKLPDDYKGRWFVLFSHPGDFTPVCTTEFYSFSKKYEEFKKLNTELIGLSVDSNISHIEWVMWIEKNLKVEVPFPIIADPMGNVAKRLGMIHAESSTATVRAVFIIDDKGTVRLILYYPMEIGRNIDEILRAIRALQLVDKAGVVTPANWPNNELIGDKVINPAPRTIKDAKMRLGQPFDWWFTYKEVKTT", "notes": "The residue numbers printed in the text (Cys49, His41, Lys24) are one lower than the positions in the printed construct (C50, H42, K25); surmise: the V at position 2 comes from the NcoI cloning site; Decamer (five homodimers) in the crystal and in solution; also called S. islandicus Bcp2; SiRe_0346; source: E. coli Rosetta, purified (HisTrap FF, dialysis); not shown: His6, C-terminal, kept; …"}},
  "key": {"[1]": {"biological_target": "the molecule itself", "experiment": "SEC; Superdex 200, about 2 mg protein, 50 mM Na2HPO4 pH 7.4, 150 mM NaCl; untreated protein; molecular-weight standard curve"}, "[2]": {"biological_target": "the molecule itself", "experiment": "crystal structure; hanging-drop vapor diffusion, 7.5 mg/ml protein in 10 mM Tris-HCl pH 7.5; reservoir 10 mM Tris-HCl pH 7.5, 15% PEG 1500, 0.1 M MgCl2, 283 K; 2.75 Å, space group P212121, ten monomers in the asymmetric unit"}},
  "data": [
    {"protein": "B1", "values": [
      {"measurement": "stoichiometry N", "setting": "[1]", "value": "~20", "unit": "subunits"},
      {"measurement": "stoichiometry N", "setting": "[2]", "value": 10, "unit": "subunits"}
    ]}
  ]
}
